Reference: patent US20140087995A1 (published 2014)
Numbered stars: 1 amine (or outer) side, 2 acyl side, 3 side chain; on linkers, the order of the positions; unused ones are H or OH. Bridge positions count the residues as written; N and C are the ends. * marks the point of attachment. C20 diacid = O=C(O)CCCCCCCCCCCCCCCCCCC(=O)*; γGlu = O=C(O)[C@H](CCC(=O)[*:2])N[*:1]

T1: human amylin receptor (amylin 3(a) receptor: human calcitonin receptor plus RAMP-3) (human, UniProt P30988 25-474; O60896 24-148, limits assumed)
T1 construct: whole, on cells; the functional assay (Assay IIa) used the whole cells; also called hAmylin-R; hAmylinR
T1 sequence (looked up) 1: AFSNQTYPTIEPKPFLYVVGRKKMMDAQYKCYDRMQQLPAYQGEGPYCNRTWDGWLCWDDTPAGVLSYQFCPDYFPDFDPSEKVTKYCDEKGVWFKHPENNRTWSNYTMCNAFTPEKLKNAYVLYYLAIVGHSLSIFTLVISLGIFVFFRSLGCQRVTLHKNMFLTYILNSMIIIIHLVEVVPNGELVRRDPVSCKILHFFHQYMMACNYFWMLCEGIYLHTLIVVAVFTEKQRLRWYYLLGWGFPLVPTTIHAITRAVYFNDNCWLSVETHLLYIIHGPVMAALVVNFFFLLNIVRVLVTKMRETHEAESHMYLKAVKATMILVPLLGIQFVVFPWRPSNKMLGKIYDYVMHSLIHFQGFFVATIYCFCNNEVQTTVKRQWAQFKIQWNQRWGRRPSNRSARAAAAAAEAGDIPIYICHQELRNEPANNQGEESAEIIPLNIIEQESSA
T1 sequence (looked up) 2: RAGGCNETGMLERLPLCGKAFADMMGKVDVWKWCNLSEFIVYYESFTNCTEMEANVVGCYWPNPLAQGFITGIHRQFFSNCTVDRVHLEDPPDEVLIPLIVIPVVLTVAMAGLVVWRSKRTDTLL

T2: human calcitonin receptor (human, UniProt P30988 25-474)
T2 sequence (looked up): T1 sequence (looked up) 1

B1: N^α1-[(4S)-4-carboxy-4-(19-carboxynonadecanoylamino)butanoyl]-[Asp14,Arg17,Pro21,Pro27,Pro37]-h-amylin (peptide)
peptide: {C20 diacid-γGlu}-KCNTATCATQRLADFLRHSSPNFGAIPSSTNVGSNTP-NH2
modifications: disulfide 2-7
SMILES: CC[C@H](C)[C@H](NC(=O)[C@H](C)NC(=O)CNC(=O)[C@H](Cc1ccccc1)NC(=O)[C@H](CC(N)=O)NC(=O)[C@@H]1CCCN1C(=O)[C@H](CO)NC(=O)[C@H](CO)NC(=O)[C@H](Cc1c[nH]cn1)NC(=O)[C@H](CCCNC(=N)N)NC(=O)[C@H](CC(C)C)NC(=O)[C@H](Cc1ccccc1)NC(=O)[C@H](CC(=O)O)NC(=O)[C@H](C)NC(=O)[C@H](CC(C)C)NC(=O)[C@H](CCCNC(=N)N)NC(=O)[C@H](CCC(N)=O)NC(=O)[C@@H](NC(=O)[C@H](C)NC(=O)[C@@H]1CSSC[C@H](NC(=O)[C@H](CCCCN)NC(=O)CC[C@H](NC(=O)CCCCCCCCCCCCCCCCCCC(=O)O)C(=O)O)C(=O)N[C@@H](CC(N)=O)C(=O)N[C@@H]([C@@H](C)O)C(=O)N[C@@H](C)C(=O)N[C@@H]([C@@H](C)O)C(=O)N1)[C@@H](C)O)C(=O)N1CCC[C@H]1C(=O)N[C@@H](CO)C(=O)N[C@@H](CO)C(=O)N[C@H](C(=O)N[C@@H](CC(N)=O)C(=O)N[C@H](C(=O)NCC(=O)N[C@@H](CO)C(=O)N[C@@H](CC(N)=O)C(=O)N[C@H](C(=O)N1CCC[C@H]1C(N)=O)[C@@H](C)O)C(C)C)[C@@H](C)O
notes: also called compound 10
B2: N^α1-[(4S)-4-carboxy-4-(19-carboxynonadecanoylamino)butanoyl]-[Glu14,Arg17,Pro21,Pro27,Pro29]-h-amylin (peptide)
peptide: {C20 diacid-γGlu}-KCNTATCATQRLAEFLRHSSPNFGAIPSPTNVGSNTY-NH2
modifications: disulfide 2-7
SMILES: CC[C@H](C)[C@H](NC(=O)[C@H](C)NC(=O)CNC(=O)[C@H](Cc1ccccc1)NC(=O)[C@H](CC(N)=O)NC(=O)[C@@H]1CCCN1C(=O)[C@H](CO)NC(=O)[C@H](CO)NC(=O)[C@H](Cc1c[nH]cn1)NC(=O)[C@H](CCCNC(=N)N)NC(=O)[C@H](CC(C)C)NC(=O)[C@H](Cc1ccccc1)NC(=O)[C@H](CCC(=O)O)NC(=O)[C@H](C)NC(=O)[C@H](CC(C)C)NC(=O)[C@H](CCCNC(=N)N)NC(=O)[C@H](CCC(N)=O)NC(=O)[C@@H](NC(=O)[C@H](C)NC(=O)[C@@H]1CSSC[C@H](NC(=O)[C@H](CCCCN)NC(=O)CC[C@H](NC(=O)CCCCCCCCCCCCCCCCCCC(=O)O)C(=O)O)C(=O)N[C@@H](CC(N)=O)C(=O)N[C@@H]([C@@H](C)O)C(=O)N[C@@H](C)C(=O)N[C@@H]([C@@H](C)O)C(=O)N1)[C@@H](C)O)C(=O)N1CCC[C@H]1C(=O)N[C@@H](CO)C(=O)N1CCC[C@H]1C(=O)N[C@H](C(=O)N[C@@H](CC(N)=O)C(=O)N[C@H](C(=O)NCC(=O)N[C@@H](CO)C(=O)N[C@@H](CC(N)=O)C(=O)N[C@H](C(=O)N[C@@H](Cc1ccc(O)cc1)C(N)=O)[C@@H](C)O)C(C)C)[C@@H](C)O
notes: also called compound 37
B3: N^α1-[(4S)-4-carboxy-4-(19-carboxynonadecanoylamino)butanoyl]-[Glu14,Arg17,Pro21,Pro27,His35]-h-amylin (peptide)
peptide: {C20 diacid-γGlu}-KCNTATCATQRLAEFLRHSSPNFGAIPSSTNVGSHTY-NH2
modifications: disulfide 2-7
SMILES: CC[C@H](C)[C@H](NC(=O)[C@H](C)NC(=O)CNC(=O)[C@H](Cc1ccccc1)NC(=O)[C@H](CC(N)=O)NC(=O)[C@@H]1CCCN1C(=O)[C@H](CO)NC(=O)[C@H](CO)NC(=O)[C@H](Cc1c[nH]cn1)NC(=O)[C@H](CCCNC(=N)N)NC(=O)[C@H](CC(C)C)NC(=O)[C@H](Cc1ccccc1)NC(=O)[C@H](CCC(=O)O)NC(=O)[C@H](C)NC(=O)[C@H](CC(C)C)NC(=O)[C@H](CCCNC(=N)N)NC(=O)[C@H](CCC(N)=O)NC(=O)[C@@H](NC(=O)[C@H](C)NC(=O)[C@@H]1CSSC[C@H](NC(=O)[C@H](CCCCN)NC(=O)CC[C@H](NC(=O)CCCCCCCCCCCCCCCCCCC(=O)O)C(=O)O)C(=O)N[C@@H](CC(N)=O)C(=O)N[C@@H]([C@@H](C)O)C(=O)N[C@@H](C)C(=O)N[C@@H]([C@@H](C)O)C(=O)N1)[C@@H](C)O)C(=O)N1CCC[C@H]1C(=O)N[C@@H](CO)C(=O)N[C@@H](CO)C(=O)N[C@H](C(=O)N[C@@H](CC(N)=O)C(=O)N[C@H](C(=O)NCC(=O)N[C@@H](CO)C(=O)N[C@@H](Cc1c[nH]cn1)C(=O)N[C@H](C(=O)N[C@@H](Cc1ccc(O)cc1)C(N)=O)[C@@H](C)O)C(C)C)[C@@H](C)O
notes: also called compound 18
B4: N^α1-[(4S)-4-carboxy-4-(19-carboxynonadecanoylamino)butanoyl]-[Glu14,Arg17,Pro21,Pro27,His34]-h-amylin (peptide)
peptide: {C20 diacid-γGlu}-KCNTATCATQRLAEFLRHSSPNFGAIPSSTNVGHNTY-NH2
modifications: disulfide 2-7
SMILES: CC[C@H](C)[C@H](NC(=O)[C@H](C)NC(=O)CNC(=O)[C@H](Cc1ccccc1)NC(=O)[C@H](CC(N)=O)NC(=O)[C@@H]1CCCN1C(=O)[C@H](CO)NC(=O)[C@H](CO)NC(=O)[C@H](Cc1c[nH]cn1)NC(=O)[C@H](CCCNC(=N)N)NC(=O)[C@H](CC(C)C)NC(=O)[C@H](Cc1ccccc1)NC(=O)[C@H](CCC(=O)O)NC(=O)[C@H](C)NC(=O)[C@H](CC(C)C)NC(=O)[C@H](CCCNC(=N)N)NC(=O)[C@H](CCC(N)=O)NC(=O)[C@@H](NC(=O)[C@H](C)NC(=O)[C@@H]1CSSC[C@H](NC(=O)[C@H](CCCCN)NC(=O)CC[C@H](NC(=O)CCCCCCCCCCCCCCCCCCC(=O)O)C(=O)O)C(=O)N[C@@H](CC(N)=O)C(=O)N[C@@H]([C@@H](C)O)C(=O)N[C@@H](C)C(=O)N[C@@H]([C@@H](C)O)C(=O)N1)[C@@H](C)O)C(=O)N1CCC[C@H]1C(=O)N[C@@H](CO)C(=O)N[C@@H](CO)C(=O)N[C@H](C(=O)N[C@@H](CC(N)=O)C(=O)N[C@H](C(=O)NCC(=O)N[C@@H](Cc1c[nH]cn1)C(=O)N[C@@H](CC(N)=O)C(=O)N[C@H](C(=O)N[C@@H](Cc1ccc(O)cc1)C(N)=O)[C@@H](C)O)C(C)C)[C@@H](C)O
notes: also called compound 17
B5: N^α1-[(4S)-4-carboxy-4-(19-carboxynonadecanoylamino)butanoyl]-[Glu14,Arg17,Pro21,Pro27,Asp35,Pro37]-h-amylin (peptide)
peptide: {C20 diacid-γGlu}-KCNTATCATQRLAEFLRHSSPNFGAIPSSTNVGSDTP-NH2
modifications: disulfide 2-7
SMILES: CC[C@H](C)[C@H](NC(=O)[C@H](C)NC(=O)CNC(=O)[C@H](Cc1ccccc1)NC(=O)[C@H](CC(N)=O)NC(=O)[C@@H]1CCCN1C(=O)[C@H](CO)NC(=O)[C@H](CO)NC(=O)[C@H](Cc1c[nH]cn1)NC(=O)[C@H](CCCNC(=N)N)NC(=O)[C@H](CC(C)C)NC(=O)[C@H](Cc1ccccc1)NC(=O)[C@H](CCC(=O)O)NC(=O)[C@H](C)NC(=O)[C@H](CC(C)C)NC(=O)[C@H](CCCNC(=N)N)NC(=O)[C@H](CCC(N)=O)NC(=O)[C@@H](NC(=O)[C@H](C)NC(=O)[C@@H]1CSSC[C@H](NC(=O)[C@H](CCCCN)NC(=O)CC[C@H](NC(=O)CCCCCCCCCCCCCCCCCCC(=O)O)C(=O)O)C(=O)N[C@@H](CC(N)=O)C(=O)N[C@@H]([C@@H](C)O)C(=O)N[C@@H](C)C(=O)N[C@@H]([C@@H](C)O)C(=O)N1)[C@@H](C)O)C(=O)N1CCC[C@H]1C(=O)N[C@@H](CO)C(=O)N[C@@H](CO)C(=O)N[C@H](C(=O)N[C@@H](CC(N)=O)C(=O)N[C@H](C(=O)NCC(=O)N[C@@H](CO)C(=O)N[C@@H](CC(=O)O)C(=O)N[C@H](C(=O)N1CCC[C@H]1C(N)=O)[C@@H](C)O)C(C)C)[C@@H](C)O
notes: also called compound 11

Molecular target: T1, human amylin receptor (amylin 3(a) …)
Experiment: SPA competition binding, membranes of Amylin 3(a)/CRE-luc BHK cells, displacement of 125I-rat amylin (Assay V)
Protocol: The binding assay was performed using scintillation proximity assay (SPA) beads (RPNQ0001) from PerkinElmer and cell membranes from the Amylin 3(a)/CRE-luc cells (as described in Assay (II)) were used. Membranes were prepared in the following way; the cells were rinsed with PBS and incubated with Versene for approximately 5 min before harvesting. The cells were flushed with PBS and the cell-suspension was centrifuged for 5 min at 1000 rpm. Cells were homogenized (ultrathurrax) in a buffer containing 20 mM Na-HEPES and 10 mM EDTA (pH 7.4) and centrifuged at 20.000 rpm for 15 min. The resulting pellet was resuspended, homogenized and centrifuged (20.000 rpm, 15 min) in a buffer containing 20 mM Na-HEPES and 0.1 mM EDTA (pH 7.4, buffer 2). The resulting pellet was resuspended in buffer 2 and protein concentration was measured (BCA protein Assay, Pierce). The homogenate was kept cold during the whole procedure. The membranes were kept at −80° C. until use. The assay was performed in a 384 well Optiplate (PerkinElmer) in a total volume of 40 ul. Membranes were mixed with SPA beads. Final concentration of membranes 35 ng/μL final and SPA beads was 0.05 mg/well. Test-compounds were dissolved in DMSO and further diluted in assay buffer (50 mM Hepes, pH 7.4, 1 mM CaCl2, 5 mM MgCl₂, 0.1% OA and 0.02% Tween20). […] The final mixture was incubated with shaking at 400 rpm for 120 min at 25° C. prior to centrifugation (1500 rpm, 10 min). Samples were analyzed on TopCounter™ (Packard). The IC₅₀ was calculated using (one site binding competition analysis) GraphPad Prism5 as a measure of receptor affinity.

Going from B1 to B2, the IC50 rises from 0.082 nM to 0.97 nM (12-fold).

Going from B3 to B4, the IC50 rises from 0.554 nM to 0.878 nM (1.6-fold).

B5 gave an IC50 of 0.105 nM.

Molecular target: T1, human amylin receptor (amylin 3(a) …)
Experiment: cell-based or functional assay

B1 and B2 are within 1.5-fold of each other in “hAmylin-R funct. EC50” value: 0.072 nM for the first, 0.092 nM for the second.

Compared with B3, B4 is 1.7-fold higher in “hAmylin-R funct. EC50” value: 0.154 nM for the first, 0.268 nM for the second.

B5 was tested, and the “hAmylin-R funct. EC50” value was 0.12 nM.

Molecular target: T2, human calcitonin receptor
Experiment: cell-based or functional assay

Compared with B1, B2 is higher in “Ratio hCT/hAmylin funct. (hCTR EC50 against hAmylin-R EC50)” value: 1 for the first, 4 for the second.

Compared with B3, B4 is higher in “Ratio hCT/hAmylin funct. (hCTR EC50 against hAmylin-R EC50)” value: 4.8 for the first, 8.8 for the second.

For B5, the “Ratio hCT/hAmylin funct. (hCTR EC50 against hAmylin-R EC50)” value was 0.9.

Going from B1 to B2, the “hCTR funct. EC50” value rises from 0.07 nM to 0.372 nM (5.3-fold).

First: B3
Second: B4
The “hCTR funct. EC50” value of the first is 3.2-fold lower: 0.742 nM for the first, 2.35 nM for the second.

For B5, the “hCTR funct. EC50” value was 0.112 nM.
